B1: Tub4 (yeast gamma-tubulin), wild type, untagged [S. cerevisiae] / Spc110 [S. cerevisiae (endogenous in yeast cells)] (parent)
chain 1: MGGEIITLQAGQCGNHVGKFLWSQLAKEHAIGTDGLSQLPDSSTERDDDTKPFFRENSRNKFTPRAIMMDSEPSVIADVENTFRGFFDPRNTWVASDGASAGNSWANGYDIGTRNQDDILNKIDKEIDSTDNFEGFQLLHSVAGGTGSGLGSNLLEALCDRYPKKILTTYSVFPARSSEVVVQSYNTILALRRLIEDSDATVVFDNASLLNISGKVFRNPNIDLQHTNQLISTIISSVTNSIRFPSYMYSSMSSIYSTLIPSPELHFLSPSFTPFTSDYIHDDIAHKGHSSYDVMLDLLDPSNSLVSTAMNNPTYFNVYNTIIGNVEPRQISRAMTKLQQRIKFPSWSSSAMHVNIGRRSPYLPLQPNENEVSGMMLSNMSTVVNVFENACNTFDKVFAKGAFLNNYNVGDLFQSMQNVQDEFAESREVVQSLMEDYVAAEQDSYLDDVLVDDENMVGELEEDLDADGDHKLV
chain 2: MDEASHLPNGSLKNMEFTPVGFIKSKRNTTQTQVVSPTKVPNANNGDENEGPVKKRQRRSIDDTIDSTRLFSEASQFDDSFPEIKANIPPSPRSGNVDKSRKRNLIDDLKKDVPMSQPLKEQEVREHQMKKERFDRALESKLLGKRHITYANSDISNKELYINEIKSLKHEIKELRKEKNDTLNNYDTLEEETDDLKNRLQALEKELDAKNKIVNSRKVDDHSGCIEEREQMERKLAELERKLKTVKDQVLELENNSDVQSLKLRSKEDELKNLMNELNELKSNAEEKDTQLEFKKNELRKRTNELNELKIKSDEMDLQLKQKQNESKRLKDELNELETKFSENGSQSSAKENELKMLKNKIAELEEEISTKNSQLIAKEGKLASLMAQLTQLESKLNQRDSQLGSREEELKKTNDKLQKDIRIAREETVSKDERIIDLQKKVKQLENDLFVIKKTHSESKTITDNELESKDKLIKILENDLKVAQEKYSKMEKELKEREFNYKISESKLEDEKTTLNEKISNLAAENSQLKNKIEDNSTATHHMKENYEKQLESLRKDIEEYKESAKDSEDKIEELKIRIAENSAKVSEKRSKDIKQKDEQISDLTQNLKLQEDEISSLKSIIDRYKKDFNQLKSEQSNIQHDLNLQILNLENKLIESEDELKSLRDSQKIEIENWKRKYNNLSLENDRLLTEKESASDKEREISILNRKLDEMDKEKWNLQESKEKYKRELQKVITANDRLRREKEELNENSNNIRIMEDKMTRIKKNYLSEITSLQEENRRLEERLILNERRKDNDSTMQLNDIISYYKLKYHSEVRHNNDLKVINDYLNKVLALGTRRLRLDTRKGEHSLNISLPDDDELDRDYYNSHVYTRYHDYEYPLRFNLNRRGPYFERRLSFKTVALLVLACVRMKRIAFYRRSDDNRLRILRDRIESSSGRISW

Variants of: B1
Test: co-immunoprecipitation (anti-HA IP of Spc97-3HA), quantified immunoblot
Details: with Spc110 [S. cerevisiae (endogenous in yeast cells)]; Indirect: Spc110 recovered in Spc97-3HA IP from tub4-S74E cells; TUB4-AID SPC97-3HA cells, IAA for 2 h at 30°C; normalized to precipitated Spc97-3HA; parent: 1; read off a plot

Variant | ratio to parent [RI]
chain 1 MGGEIITLQAGQCGNHVGKFLWSQLAKEHAIGTDGLSQLPDSSTERDDDTKPFFRENSRNKFTPRAIMMDSEPEVIADVENTFRGFFDPRNTWVASDGASAGNSWANGYDIGTRNQDDILNKIDKEIDSTDNFEGFQLLHSVAGGTGSGLGSNLLEALCDRYPKKILTTYSVFPARSSEVVVQSYNTILALRRLIEDSDATVVFDNASLLNISGKVFRNPNIDLQHTNQLISTIISSVTNSIRFPSYMYSSMSSIYSTLIPSPELHFLSPSFTPFTSDYIHDDIAHKGHSSYDVMLDLLDPSNSLVSTAMNNPTYFNVYNTIIGNVEPRQISRAMTKLQQRIKFPSWSSSAMHVNIGRRSPYLPLQPNENEVSGMMLSNMSTVVNVFENACNTFDKVFAKGAFLNNYNVGDLFQSMQNVQDEFAESREVVQSLMEDYVAAEQDSYLDDVLVDDENMVGELEEDLDADGDHKLV [chain 1 S74E] | 1.3

Same assay, conditions: with Spc110 [S. cerevisiae (endogenous in yeast cells)], Indirect: Spc110 recovered in Spc97-3HA IP from tub4-S360D cells, TUB4-AID SPC97-3HA cells, IAA for 2 h at 30°C, normalized to precipitated Spc97-3HA, read off a plot

Variant | ratio to parent [RI]
chain 1 MGGEIITLQAGQCGNHVGKFLWSQLAKEHAIGTDGLSQLPDSSTERDDDTKPFFRENSRNKFTPRAIMMDSEPSVIADVENTFRGFFDPRNTWVASDGASAGNSWANGYDIGTRNQDDILNKIDKEIDSTDNFEGFQLLHSVAGGTGSGLGSNLLEALCDRYPKKILTTYSVFPARSSEVVVQSYNTILALRRLIEDSDATVVFDNASLLNISGKVFRNPNIDLQHTNQLISTIISSVTNSIRFPSYMYSSMSSIYSTLIPSPELHFLSPSFTPFTSDYIHDDIAHKGHSSYDVMLDLLDPSNSLVSTAMNNPTYFNVYNTIIGNVEPRQISRAMTKLQQRIKFPSWSSSAMHVNIGRRDPYLPLQPNENEVSGMMLSNMSTVVNVFENACNTFDKVFAKGAFLNNYNVGDLFQSMQNVQDEFAESREVVQSLMEDYVAAEQDSYLDDVLVDDENMVGELEEDLDADGDHKLV [chain 1 S360D] | 0.28

Same assay, conditions: with Spc110 [S. cerevisiae (endogenous in yeast cells)], Indirect: Spc110 recovered in Spc97-3HA IP from tub4-S100E cells, TUB4-AID SPC97-3HA cells, IAA for 2 h at 30°C, normalized to precipitated Spc97-3HA, read off a plot

Variant | ratio to parent [RI]
chain 1 MGGEIITLQAGQCGNHVGKFLWSQLAKEHAIGTDGLSQLPDSSTERDDDTKPFFRENSRNKFTPRAIMMDSEPSVIADVENTFRGFFDPRNTWVASDGAEAGNSWANGYDIGTRNQDDILNKIDKEIDSTDNFEGFQLLHSVAGGTGSGLGSNLLEALCDRYPKKILTTYSVFPARSSEVVVQSYNTILALRRLIEDSDATVVFDNASLLNISGKVFRNPNIDLQHTNQLISTIISSVTNSIRFPSYMYSSMSSIYSTLIPSPELHFLSPSFTPFTSDYIHDDIAHKGHSSYDVMLDLLDPSNSLVSTAMNNPTYFNVYNTIIGNVEPRQISRAMTKLQQRIKFPSWSSSAMHVNIGRRSPYLPLQPNENEVSGMMLSNMSTVVNVFENACNTFDKVFAKGAFLNNYNVGDLFQSMQNVQDEFAESREVVQSLMEDYVAAEQDSYLDDVLVDDENMVGELEEDLDADGDHKLV [chain 1 S100E] | 0.76

Source: publication PMC3088709, “Phosphorylation of the Yeast γ-Tubulin Tub4 Regulates Microtubule Function” (PLoS ONE, 2011)
